Reference: article PMC6885295, “Soluble Production, Characterization, and Structural Aesthetics of an Industrially Important Thermostable β-Glucosidase from Clostridium thermocellum in Escherichia coli” (BioMed Research International, 2019)

System: T1, OCc1ccccc1O[C@@H]1O[C@H](CO)[C@@H](O)[C@H](O)[C@H]1O
T1 construct: forward primer reads ATG GCA AAG ATA ACT TTC (N-terminus MAKITF, NcoI site may change residue 2)
Assay: DNS reducing-sugar assay, Lineweaver-Burk plot
Format: biochemical, Acetivibrio thermocellus
Conditions: 1.5 M Tris-Cl pH 7.0, 50 °C, 30 min, substrate range 2.5-20 mM

BglA (Acetivibrio thermocellus ATCC 27405; S2A)
Km: 19.83 mM
